# Experimental data as given in patent US20220396632A1 (VERSEAU THERAPEUTICS, published 2022).
# Numbering of substitutions follows the chain as printed.
# T1: Biotin PSGL-1(42-62) peptide, unmodified (human, C-terminal Lys-biotin)
# T1 construct: Residues 42-62 followed by GGGK-biotin; also called WT; wild-type
# T1 peptide: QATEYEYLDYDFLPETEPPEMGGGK
# T2: Biotin Y46,48,51(SO3) PSGL-1(42-62) peptide (human, sulfotyrosine at Y46, Y48 and Y51; C-terminal Lys-biotin)
# T2 construct: also called fully sulfated N-terminal PSGL-1 peptide
# T2 peptide: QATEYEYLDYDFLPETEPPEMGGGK
# T3: Recombinant human PSGL-1(ECD)-hFc1 (R&D Systems, Cat. 3345-PS) (human, UniProt Q14242 42-305)
# T3 construct: Bought; Gln42-Val295 counted on AAC50061; also called PSGL-1-Fc; PSGL-1-hFc1 chimera; not shown: human IgG1 Fc, Pro100-Lys330
# T3 sequence: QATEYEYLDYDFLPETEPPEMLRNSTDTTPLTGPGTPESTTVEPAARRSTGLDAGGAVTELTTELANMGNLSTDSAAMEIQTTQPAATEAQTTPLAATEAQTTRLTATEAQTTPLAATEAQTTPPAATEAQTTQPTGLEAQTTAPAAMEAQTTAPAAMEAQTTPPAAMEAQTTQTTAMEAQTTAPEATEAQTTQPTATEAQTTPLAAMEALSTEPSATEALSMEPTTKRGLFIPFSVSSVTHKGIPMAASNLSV
# T4: Cynomolgus PSGL-1(ECD)-HIS (cynomolgus macaque)
# T4 construct: also called Cyno PSGL1-His
# T4 chain: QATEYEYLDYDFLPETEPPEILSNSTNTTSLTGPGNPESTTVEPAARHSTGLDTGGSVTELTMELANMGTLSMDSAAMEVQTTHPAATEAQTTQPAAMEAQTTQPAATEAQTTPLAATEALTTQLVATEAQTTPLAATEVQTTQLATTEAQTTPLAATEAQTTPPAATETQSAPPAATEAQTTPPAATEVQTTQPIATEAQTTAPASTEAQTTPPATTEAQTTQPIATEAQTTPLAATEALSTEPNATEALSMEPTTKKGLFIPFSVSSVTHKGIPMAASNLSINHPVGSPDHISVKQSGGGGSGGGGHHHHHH
# T5: Biotin sY51 PSGL-1(42-62) peptide (human, sulfotyrosine at Y51; C-terminal Lys-biotin)
# T5 construct: also called Y51(SO3) PSGL-1(42-62)
# T5 peptide: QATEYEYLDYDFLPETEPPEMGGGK
# T6: Scrambled Y46,48,51(SO3) PSGL-1(42-62) biotin peptide (sulfotyrosine at peptide positions 5, 7 and 10; C-terminal Lys-biotin)
# T6 construct: also called scrambled sulfated peptide: biotin
# T6 peptide: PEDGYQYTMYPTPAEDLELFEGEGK
# T7: Scrambled Y42,52,63(SO3) PSGL-1(42-62) biotin peptide (sulfotyrosine at peptide positions 1, 11 and 22; C-terminal Lys-biotin)
# T7 peptide: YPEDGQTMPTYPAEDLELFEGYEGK
# B1: 43B6 (antibody, V domains shown)
# VH: EVQLQQSGPDLVKPGALVKISCKASGYSFTAYYIHWVKQSHGKSLEWIGRVNPNTGGTSYNPKFKGKAILNVDKSSSTAYMELRSLTSEDSAVYYCARSGSPYYRYDDWGQGTTLTVSS
# VL: ENVLTQSPAIMSASPGEKVTMTCRASSTVNSTYLHWFQQKSGASPKLWIYGSSNLASGVPARFSGSGSGTSYSLTISSVEAEDAATYYCQQYSGYPLTFGAGTTLELK
# notes: Control anti-PSGL-1 mAb, recombinant; only variable domains given; also called 43B3
# B2: 9F9 (antibody, V domains shown)
# VH: EVQLVETGGGLVQPKGSLKLSCAASGFTFNTNAMNWVRQAPGKGLEWVARIRSKSNNYATYYADSVKDRFTISRDDTQSMIYLQMNNLKTEDTGMYYCVRGGSYWYFDVWGAGTTVTVSS
# VL: DVLMTQTPLSLPVSLGDQASISCRSSQSIVNSNGNTYLEWYLQKPGQSPKLLIYKVSNRFSGVPDRFSGSGSGTDFTLKISRVEAEDLGVYYCFQGSHVPWTFGGGTKLEIK
# notes: Control anti-PSGL-1 mAb, recombinant; only variable domains given; also called 9F6
# B3: 10F01 (antibody, IgG4, V domains shown)
# VH: EVQLVQSGGGLVQPGGSLRLSCAASGFTFSSYAMSWVRQAPGKGLEWVSALRGGDGGTYHADSVKGRFTISGDSSKNTLYLQMNSLRAEDTAVYYCARRMVGAAYAFDIWGQGTMVTVSS
# VL: LPVLTQPHSVSESPGKTVTISCTRSSGSIADNFVQWYRQRPGSAPTTVIYEGDQRPSGVPGRFSGSIDSSSNSASLTISGLQTDDEADYYCQSFDSYNRRTHVVFGGGTKLTVL
# B4: 20I15 (antibody, V domains shown)
# VH: EVKLVESGGGLVQPGGSLSLSCAASGFTFTDYYMSWVRQPPGKALEWLGFIRNKANGYTTEYSASVKGRFTISRDNSQSILYLQMNALRAEDSATYYCARTYLRRGYFDVWGTGTTVTVSS
# VL: DIVLTQSPASLAVSLGQRATISCRASKSVSTSGYSYMHWFQQKPGQPPKLLIYLASNLESGVPARFSGSGSGTDFTLNIHPVEEEDAATYYCQHSRELPLTFGAGTKLELK
# notes: From mouse immunisation; only variable domains given; also called 20115
# B5: 18K07 (antibody, V domains shown)
# VH: QIQLVQSGPELKKPGETVKISCEASGYTFTTYGMNWVKQAPGKGLKWMGWINTYSGVPTYADDFQGRFAFSVETSATTAYLQINNLKNEDAATYFCARSDDTYYGFAYWGQGTLVTVSA
# VL: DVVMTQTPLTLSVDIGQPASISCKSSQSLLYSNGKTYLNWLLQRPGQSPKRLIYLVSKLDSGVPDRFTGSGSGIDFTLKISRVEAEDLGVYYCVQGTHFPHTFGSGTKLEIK
# notes: From mouse immunisation; only variable domains given
# B6: 16E17 (antibody, V domains shown)
# VH: QIQLVQSGPELKKPGETVKISCKASGYAFTTYGMSWVKQAPGKGLKWMGWINTYSGVPKYADDFKGRFAFSLETSASTAYLHINNLKNEDTATYFCGRHYYGSSYFDYWGQGTTLTVSS
# VL: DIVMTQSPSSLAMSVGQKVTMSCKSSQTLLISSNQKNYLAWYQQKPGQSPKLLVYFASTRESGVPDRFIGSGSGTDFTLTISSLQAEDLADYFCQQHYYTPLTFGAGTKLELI
# notes: as for B5
# B7: 19L04 (antibody, IgG4, V domains shown)
# VH: B6 VH with A28T, K59T, H82Q, N88I, G97A, S104H
# VL: DIMMTQSPSSLAMSVGQKVTLRCKSSQSLLNSSNQKNYLAWYQQKPGQSPKLLVYFASTRESGVPVRFIGSGSGTDFTLTISSMQAEDLADYFCQQHYFSPLTFGAGTKLELK
# notes: as for B5
# B8: 19N05 (antibody, V domains shown)
# VH: B6 VH with A28T, K59T, Y60F, H82Q, Y94F, G97A, H99N, S103N, S104H
# VL: DVQITQSPSYLAASPGETISINCRASNNINKYLAWYQEKPGKTNKLLIYSGSTLQSGIPSRFSGSGSGTDFTLTISSLEPEDFAMYHCQQHNYYPLTFGAGTKLELK
# notes: as for B5
# B9: 03D07 (antibody, IgG4, V domains shown)
# VH: EVKLLESGGGLVQPGGSLRLSCAASGFTFSSYALSWVRQAPGKGLEWVSAISGSGGNTYYADSVKGRFTISRDNSKNTLYLQMNSLRAEDTAVYYCAKVVGATNYWGQGTLVTVSS
# VL: DIVMTQTPLSLPVTLGQPASISCRSSQSLVYSDGHTYLSWFHQRPGQSPRRLIYKVSIRDSGVPDRFSGSGSGTDFTLKISRVEAEDVGVYYCMQRLQIPLTFGGGTKVEIK
# B10: 05D01 (antibody, V domains shown)
# VH: QVTLRESGGALVQPGGSLRLSCAASGFPLRSNAMTWVRQAPGKGLEWVSDIRGNGASTYYADSVKGRFTISRDDSNNILFLQMNSLRAEDTAVYYCVGHGSSSYWGQGTLVTVSS
# VL: DVVMTQSPLSLPVTLGQPASISCRSSQSLVYRDGNIYLNWFQQRPGQSPRRLIYKVSNRDSGVPDRFSGSGSGTDFTLKISRVEAEDVGVYYCMQLTHWPPGFAQGTKLEIK
# Molecular target: T1, Biotin PSGL-1(42-62) peptide, unmodified
# Assay: ELISA, plate-bound target
row,Binder,EC50
1,B1,0.03 nM
2,B2,0.04 nM

# Molecular target: T2, Biotin Y46,48,51(SO3) PSGL-1(42-62) …
# Assay: ELISA, plate-bound target
row,Binder,EC50
1,B1,0.04 nM
2,B2,0.05 nM

# Molecular target: T3, Recombinant human PSGL-1(ECD)-hFc1 (R&D …)
# Assay: blocking ELISA vs L-selectin-Fc
# Description: (§1) A typical selectin blocking ELISA assay involved coating high binding half-well plates (Corning, Cat. #3690) with 2.5 ug/mL/25 ul per well of recombinant PSGL-1-Fc protein (R&D Systems, Cat #3345-PS) in PBS, pH 7.4, overnight at 4° C. […] Antibody (test and controls) was serially diluted (25 ul/well) in duplicate in assay buffer (3% BSA in wash buffer) into appropriate wells and the plate incubated for 45 min at 37° C. […] The plate was washed ×3 and HRP-conjugated streptavidin was added in assay buffer [25 ul per well; (Jackson Immunoresearch, Cat. #016-030-084)] and the plate incubated for 45 min at 37° C. […] For each antibody, an IC50 value was determined from sigmoidal fitted titration curves.
Binder,% max Block,IC50
B3,100%,6 nM
B1,100%,6 nM
B2,100%,10 nM
B4,65%,20 nM
B5,0%,
B6,0%,
B7,0%,
B8,0%,
B9,100%,6 nM

# Molecular target: T3, Recombinant human PSGL-1(ECD)-hFc1 (R&D …)
# Assay: blocking ELISA vs P-selectin-Fc
# Description: as §1
Binder,% max Block,IC50
B3,100%,4 nM
B1,100%,8 nM
B2,100%,10 nM
B4,52%,100 nM
B5,0%,
B6,0%,
B7,0%,
B8,0%,
B9,100%,5 nM

# Molecular target: T4, Cynomolgus PSGL-1(ECD)-HIS
# Assay: ELISA, plate cyno PSGL-1(ECD)-HIS
# Description: Antibody binding to plate-immobilized cyno PSGL-1(ECD) was determined either at one concentration (20 nM) or by generating full antibody binding curves (0.003-200 nM). A typical ELISA was performed by overnight coating at 4° C. with 3 ug/mL/25 ul per well of recombinant cyno PSGL-1(ECD) protein in PBS, pH 7.4, in high binding half-well plates (Corning Cat. #3690). […] Anti-PSGL-1 IgG in assay buffer (blocking buffer containing 0.05% tween 20) was added into test and control wells (20 nM/25 ul/well) and the plate incubated for 45 min at 37° C. […] The plate was incubated for 45 min at 37° C., and mAb bound to plate-immobilized target determined at A450 nm using HRP substrate (3,3′,5,5′-tetramethylbenzidine (TMB)). For each antibody, duplicate values were averaged and assay background subtracted.
row,Binder,EC50
1,B5,8.49 nM
2,B6,0.53 nM
3,B7,1.11 nM
4,B8,0.95 nM

# Molecular target: T3, Recombinant human PSGL-1(ECD)-hFc1 (R&D …)
# Assay: blocking ELISA vs VISTA-Fc, pH 6.0
Binder,% max Block,IC50
B3,100%,8 nM
B1,100%,9 nM
B2,100%,8 nM
B4,85%,30 nM
B5,0%,
B6,0%,
B7,0%,
B8,0%,
B9,100%,8 nM

# Molecular target: T5, Biotin sY51 PSGL-1(42-62) peptide
# Assay: ELISA, immobilized biotin peptide
# Outline: (§2)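 In this ELISA, half-well high binding plates (Corning Cat. #3690) received 3 ug/mL/25 ul per well of biotin-tagged PSGL-1 peptides covering residues 42 to 62, diluted in PBS, pH 7.4, and coated overnight at 4° C. Duplicate readings for each antibody were averaged and the average assay background was subtracted. PSGL-1 protein or peptide was the positive control.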
row,Binder,EC50
1,B4,178 nM

# Molecular target: T6, Scrambled Y46,48,51(SO3) PSGL-1(42-62) …
# Assay: ELISA, immobilized biotin peptide
# Outline: as §2
Binder,binding result,EC50
B4,no binding,
B10,,1.33 nM

# Molecular target: T7, Scrambled Y42,52,63(SO3) PSGL-1(42-62) …
# Assay: ELISA, immobilized biotin peptide
# Outline: as §2
Binder,"A450nm, 20 nM mAb",binding result
B10,0.01 A450nm,no binding (tested: 20 nM)
B9,,no binding (tested: 20 nM)

# Molecular target: T1, Biotin PSGL-1(42-62) peptide, unmodified
# Assay: ELISA, immobilized biotin peptide
# Outline: as §2
Binder,EC50,"A450nm, 20 nM mAb"
B4,~300 nM,
B10,,1.33 A450nm
B9,> 500 nM,

# Molecular target: T2, Biotin Y46,48,51(SO3) PSGL-1(42-62) …
# Assay: ELISA, immobilized biotin peptide
# Outline: as §2
Binder,"A450nm, 20 nM mAb",EC50
B3,2.39 A450nm,
B4,,0.485 nM
B10,2.85 A450nm,
B9,2.73 A450nm,

# Molecular target: T8, Cynomolgus PSGL-1(ECD)-hFc1 (cynomolgus macaque)
# T8 construct: also called Cyno PSGL1-Fc; Cyno PSGL-1(ECD)-Fc
# T8 sequence (chain, as listed by the source limits assumed): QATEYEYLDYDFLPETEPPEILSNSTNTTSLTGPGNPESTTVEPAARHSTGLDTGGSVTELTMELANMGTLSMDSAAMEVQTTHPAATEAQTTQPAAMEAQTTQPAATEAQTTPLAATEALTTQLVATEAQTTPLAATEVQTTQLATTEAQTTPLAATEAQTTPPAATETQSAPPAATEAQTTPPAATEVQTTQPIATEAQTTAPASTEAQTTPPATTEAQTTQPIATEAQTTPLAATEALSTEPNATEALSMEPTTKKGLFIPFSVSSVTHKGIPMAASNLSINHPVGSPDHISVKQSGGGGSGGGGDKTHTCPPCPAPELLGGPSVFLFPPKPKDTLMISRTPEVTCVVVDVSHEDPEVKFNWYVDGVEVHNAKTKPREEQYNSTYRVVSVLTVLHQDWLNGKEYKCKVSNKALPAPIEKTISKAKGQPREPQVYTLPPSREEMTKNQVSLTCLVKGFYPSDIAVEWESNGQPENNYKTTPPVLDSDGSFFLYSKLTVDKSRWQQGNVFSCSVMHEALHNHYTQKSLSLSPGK
# Assay: ELISA, 20 nM mAb on plate cyno PSGL-1(ECD)-Fc
# Outline: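 Binding signal is TMB absorbance at 450 nm from HRP detection of IgG captured on immobilized cyno PSGL-1 extracellular domain, averaged over duplicates after background subtraction. Antibodies were tested at one concentration (20 nM) or across 0.003-200 nM, incubating 45 min at 37° C.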
row,Binder,A450nm
1,B3,1.22 A450 nm
2,B10,1.38 A450 nm
3,B9,0.74 A450 nm
